Target: HAVI-Fluc-bJun (basic leucine zipper region of Jun, 225-334) (human)
Experiment: pull-down; DLR-PD (dual luciferase reporter pull-down): both proteins co-expressed in HEK293; lysate in passive lysis buffer on Streptavidin MagneSphere Paramagnetic Particles in PBS, 30 m to 1 h, room temperature; two washes PBS with 1% Nonidet P 40, one with PBS; the biotinylated HAVI-tagged protein is held, Fluc and Rluc activity read on the beads; in some samples eYFP-MAVS or other activators (IRF3) or HCV NS3/4A (MAVS) co-expressed

Sequence of Rluc-bFos-Flag (basic leucine zipper region of Fos, 118-220) (P01100 other isoform, or with tags, fused parts or gaps): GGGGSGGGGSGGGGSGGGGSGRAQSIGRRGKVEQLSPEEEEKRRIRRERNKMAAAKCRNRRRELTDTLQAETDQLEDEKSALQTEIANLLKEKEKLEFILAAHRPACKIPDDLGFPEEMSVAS
Sequence of HAVI-Fluc-bJun (basic leucine zipper region of Jun, 225-334) (human) (P05412 whole entry): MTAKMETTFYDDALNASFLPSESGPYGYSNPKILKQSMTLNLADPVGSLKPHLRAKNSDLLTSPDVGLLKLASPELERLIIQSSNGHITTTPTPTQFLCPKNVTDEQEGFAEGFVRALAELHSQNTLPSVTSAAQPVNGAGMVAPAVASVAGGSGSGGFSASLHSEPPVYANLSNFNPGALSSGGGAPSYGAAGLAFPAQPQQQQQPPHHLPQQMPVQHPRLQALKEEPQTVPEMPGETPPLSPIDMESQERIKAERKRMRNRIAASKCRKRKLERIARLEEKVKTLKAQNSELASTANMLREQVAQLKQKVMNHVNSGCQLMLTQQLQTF

activity ratio of Rluc/Fluc on the beads (Rluc/Fluc activity ratio): 1.7
fold of the percentage of Rluc on beads over the three negative controls: > 80 fold
molar ratio of Rluc-bFos to HAVI-Fluc-bJun binding to the beads: 0.1 molar ratio
percentage of Rluc on beads to lysate: 4%
Substance: Rluc-bFos-Flag (basic leucine zipper region of Fos, 118-220) (from UniProt P01100 118-220) (domain or fragment)
